Results on 13 molecules are retold here after US20240034783A1 (SOTIO BIOTECH A S, published 2024).

First the molecules themselves.
B1: hCl1a (antibody, human IgG1, kappa, V domains shown)
VH: QVQLVQSGAEVKKPGASVKVSCKASGYTFTDYAMHWVRQAPGQRLEWMGWINTYTGKPTYAQKFQGRVTITRDTSASTAYMELSSLRSEDTAVYYCARAVFYGYTMDAWGQGTLVTVSS
VL: DIQMTQSPSSLSASVGDRVTITCRASEDIYSNLAWYQQKPGKAPKLLIFSVKRLQDGVPSRFSGSGSGTDFTLTISSLQPEDFATYYCLQGSNFPLTFGQGTKVEIKR
notes: Humanized
B2: hCl1e (antibody, human IgG1, kappa, V domains shown)
VH: B1 VH with H35Y
VL: B1 VL
notes: Humanized
B3: hCl1f (antibody, human IgG1, kappa, V domains shown)
VH: B1 VH with T53A
VL: B1 VL with F49Y
notes: Humanized
B4: hCl1c (antibody, human IgG1, kappa, V domains shown)
VH: B1 VH with A61S
VL: B1 VL with A25T, S50A, V51I, N93K
notes: Humanized
B5: hCl1g (antibody, human IgG1, kappa, V domains shown)
VH: B1 VH with T53A
VL: B1 VL with A25T, L33F, F49Y, K52N, N93K
notes: Humanized
B6: hCl1b (antibody, human IgG1, kappa, V domains shown)
VH: B1 VH with A61S
VL: B1 VL
notes: Humanized
B7: hCl1h (antibody, human IgG1, kappa, V domains shown)
VH: B1 VH with H35Y, T53A, F101Y
VL: B1 VL with F49Y
notes: Humanized
B8: hCl1j (antibody, human IgG1, kappa, V domains shown)
VH: B1 VH with H35Y, T53A, F101Y
VL: B1 VL with A25T, S50A, V51I, N93K
notes: Humanized
B9: hCl1d (antibody, human IgG1, kappa, V domains shown)
VH: B1 VH with A61S
VL: B1 VL with A25T, L33F, F49Y, K52N, N93K
notes: Humanized
B10: hCl1i (antibody, human IgG1, kappa, V domains shown)
VH: B1 VH with H35Y, T53A, F101Y
VL: B1 VL
notes: Humanized
B11: IMAB362 (antibody, human IgG1, kappa, V domains shown)
VH: QVQLQQPGAELVRPGASVKLSCKASGYTFTSYWINWVKQRPGQGLEWIGNIYPSDSYTNYNQKFKDKATLTVDKSSSTAYMQLSSPTSEDSAVYYCTRSWRGNSFDYWGQGTTLTVSS
VL: DIVMTQSPSSLTVTAGEKVTMSCKSSQSLLNSGNQKNYLTWYQQKPGQPPKLLIYWASTRESGVPDRFTGSGSGTDFTLTISSVQAEDLAVYYCQNDYSYPFTFGSGTKLEIKR
notes: Control, chimeric IgG1, synthesized from the published chains; also called Claudiximab; Zolbetuximab
B12: cCl1-1 (antibody, V domains shown)
VH: QIQLVQSGPELKKPGESVKISCKASGYTFTDYAMHWVKQAPGKGLKWMGWINTYTGKPTYADDFKGRFVFSLEASASTANLQISNLKNEDTATYFCARAVFYGYTMDAWGQGTSVTVSS
VL: DIQMTQSPASLSASLGETISIACRASEDIYSNLAWYQQKSGKSPQLLIFSVKRLQDGVPSRFSGSGSGTQYSLKISGMQPEDEGDYFCLQGSNFPLTFGSGTKLEIK
notes: Chimeric antibody from a rat hybridoma; not built in; also called chimeric cCl1-1 antibody
B13: IMAB362 after the Asn-deamidation stress test (antibody, human IgG1, kappa, V domains shown)
VH: B11 VH
VL: B11 VL
modifications: partly deamidated Asn after 1 week at pH 8.0 and 40 °C; sites not determined (NS motif at LC CDR1 aa 31-32 named as liable); partly deamidated Asn after 1 week at pH 8.0 and 40 °C; sites not determined (NS motif at HC CDR3 aa 103-104 named as liable)
notes: also called stressed IMAB362; deamidated IMAB362

Changes are numbered by the printed parent chain.

The first assay addresses T1, human CLDN18.2 (human).
T1 construct: also called huCLDN18.2; hCLDN18.2
The experiment in a line: flow cytometry titration, HEK293T cells overexpressing CLDN18.2. The method, then:
(§1) In order to have a more homogenous cell population, the cells were sorted by FACS to select only cells with a the higher CLDN18.2 expression. […] After wash in FACS buffer, the cells were incubated with the PE-labeled Fey specific IgG goat anti-human secondary antibody (eBioscience) on ice for 30 min. After wash, the stained cells were resuspended in FACS buffer, analyzed and sorted by a FACSAria™ instrument, separating medium expressing cells from high expressing cells (FIG. 2B). […] HEK293T cells overexpressing CLDN18.2 or CLDN18.1 were generated as described in Example 3 and the expression of CLDN18.2 was analyzed by flow cytometry (FIG. 3).
(§2) A PE-coupled secondary anti-human IgG antibody was added to the cells for additional 30 min at 4° C. after washes with the FC buffer, followed by further washes with FC buffer. The cells were then resuspended in 100 μl FC buffer and measured with a FACSCalibur™ cell analyzer (BD Biosciences, USA).
On the technique in general: Flow cytometry measures light scatter and fluorescence of single cells or particles in a stream.
In the case of B1, the EC50 stood at 0.598 µg/mL and the “Max MFI” value came out at 1880 MFI.
As to B2, the EC50 worked out at 0.558 µg/mL and the “Max MFI” value turned out to be 1940 MFI.
In the case of B3, a half-maximal effect (EC50) was put at 0.795 µg/mL and the “Max MFI” value is 1720 MFI.
The corresponding values for B4 are 0.753 µg/mL and 1230 MFI.
Take B5: the EC50 amounted to 0.678 µg/mL and the “Max MFI” value amounted to 1440 MFI.
The corresponding values for B6 are 0.572 µg/mL and 1860 MFI.
B7: a half-maximal response (EC50) required 0.432 µg/mL and the “Max MFI” value worked out at 2080 MFI.
Regarding B8, the concentration for a half-maximal effect (EC50) was 0.408 µg/mL and the “Max MFI” value turned out to be 1850 MFI.
B9: a half-maximal response (EC50) required 0.541 µg/mL and the “Max MFI” value was 1640 MFI.
Consider B10, for which the EC50 turned out to be 0.444 µg/mL and the “Max MFI” value amounted to 2180 MFI.
The corresponding values for B11 are 0.388 µg/mL and 1970 MFI.

The target in the next assay is T1, human CLDN18.2. The experiment in a line: flow cytometry; % positive tumor cells divided by % positive healthy stomach cells. The method, then: (§3) Two Balb/c mice were implanted subcutaneously with 1×10⁶ A549 cells expressing CLDN18.2 in 100 μl of 50% Matrigel and tumors growth was monitored over a few weeks until the tumor reached the desired size between 150-450 mm 3. Healthy stomach tissue and tumor tissue was collected for FC analysis. The collected tissues were cut into small pieces and digested with the Miltenyi tumor dissociation kit (MACS Miltenyi Biotec, Germany). Tissue pieces were incubated with dissociation buffer (prepared according to the manufacturer instruction) in 6 well plates for 30 min in 37° C. under permanent gentle rocking motion. Samples were resuspended and strained through a 70 μm cell strainer (Corning, USA) followed by a wash with 20 ml FC buffer (PBS+2% FBS). Cell suspensions were centrifuged (5 min at 400 g for 4° C.) and the supernatants were discarded. If needed, cell suspensions were passed through a strainer and centrifuged repeatedly and pellets resuspended in 5 ml of red blood cell lysis buffer (Biolegend, USA), incubated on ice for 4 min. After incubation, 25 ml of PBS was added, and the suspensions were centrifuged again (5 min at 400 g for 4° C.). Pellets were resuspended in FC buffer (0.5-3 ml based on pellets). Equal number of cells were transferred into 96 well plates and further processed for FC analysis. The cells in the plates were washed with PBS and centrifuged (400 g for 2 min at 4° C.). […] After incubation, cells were washed twice in PBS and centrifuged (400 g for 2 min at 4° C.). Pellets were resuspended in 50 μl/well of secondary staining mix (PBS+PE-labelled anti-human antibody) (Thermo Fisher Scientific, USA), and incubated 25 min on ice. After incubation cells were washed again twice in PBS. Pellets were resuspended in 100 μl of PBS containing DAPI. Plates were kept on ice until FC analysis. For FC analysis, live cells were separated from dead cells by forward scatter and DAPI stain. Live cells were then gated for the presence of cytokeratin ([…]) and bound CLDN18.2 antibodies (PE positive cells).
In the case of B12, the “Ratio tumor/stomach (Average)” value is 74.3, the “Ratio tumor/stomach (Mouse 1)” value was determined as 92.5 and the “Ratio tumor/stomach (Mouse 2)” value worked out at 50.
Take B1: the “Ratio tumor/stomach (Average)” value amounted to 34.7, the “Ratio tumor/stomach (Mouse 1)” value amounted to 28.3 and the “Ratio tumor/stomach (Mouse 2)” value stood at 60.
Consider B3, for which the “Ratio tumor/stomach (Average)” value worked out at 329, the “Ratio tumor/stomach (Mouse 1)” value amounted to 800 and the “Ratio tumor/stomach (Mouse 2)” value was 140.
As to B4, the “Ratio tumor/stomach (Average)” value worked out at 74, the “Ratio tumor/stomach (Mouse 1)” value was 290 and the “Ratio tumor/stomach (Mouse 2)” value worked out at 20.
As for B6, the “Ratio tumor/stomach (Average)” value came out at 53.1, the “Ratio tumor/stomach (Mouse 1)” value was determined as 43 and the “Ratio tumor/stomach (Mouse 2)” value is 131.
For B11, the “Ratio tumor/stomach (Average)” value was determined as 0.88, the “Ratio tumor/stomach (Mouse 1)” value was found to be 2.53 and the “Ratio tumor/stomach (Mouse 2)” value was determined as 0.29.

The next assay deals with T1, human CLDN18.2. The experiment in a line: ELISA on CLDN18.2-lipoparticles. The method, then:
(§4) CLDN18.2-lipoparticles and Null-lipoparticles (without antigens) were used to coat 96-well plates at a final concentration of 10 U/ml in 100 mM sodium carbonate, pH 9.6. Upon washing with PBS/0.05% Tween-20 (PBS-T) and blocking with PBS-T/3% BSA for at least 1 h at 37° C., 1:3 serial dilutions of hCl antibodies with a starting concentration of 2 μg/ml were added and incubated for at least 1 h at 37° C.
(In general: An ELISA detects its analyte on a solid surface through an enzyme-linked reagent.)
Take B11: the EC50 turned out to be 0.0515 µg/mL.

For a further assay, the target named is T1, human CLDN18.2. The experiment in a line: flow cytometry titration, PA-TU-8988S-High cells. The method, then:
as §1, §2
With B1, the response was half-maximal at 2.43 µg/mL (EC50) and the “Max MFI” value was determined as 1650 MFI.
Take B2: a half-maximal effect (EC50) was put at 2.24 µg/mL and the “Max MFI” value is 1860 MFI.
Turning to B3, the EC50 is 2.14 µg/mL and the “Max MFI” value was 1600 MFI.
The like results for B4 were, in that order, 1.47 µg/mL and 1050 MFI.
In the case of B5, the concentration giving a half-maximal response (EC50) is 1.77 µg/mL and the “Max MFI” value turned out to be 1250 MFI.
With B6, the EC50 stood at 1.98 µg/mL and the “Max MFI” value was 1720 MFI.
B7: the EC50 is 1.75 µg/mL and the “Max MFI” value worked out at 1950 MFI.
Consider B8, for which the EC50 worked out at 1.16 µg/mL and the “Max MFI” value worked out at 1700 MFI.
For B9, it took 1.93 µg/mL to reach a half-maximal effect (EC50) and the “Max MFI” value is 1530 MFI.
For B10, the EC50 worked out at 1.23 µg/mL and the “Max MFI” value was determined as 2090 MFI.
For B11, the EC50 stood at 0.508 µg/mL and the “Max MFI” value was 1050 MFI.

In another assay the target is T1, human CLDN18.2. The experiment in a line: flow cytometry, live cells from mouse tumor of A549 cells expressing CLDN18.2, antibody 4 µg/ml. As to the method:
as §3
On to B12, for which the “% of positive tumor cells (Average)” value is 26%, the “% of positive tumor cells (Mouse 1)” value is 37% and the “% of positive tumor cells (Mouse 2)” value is 15%.
Take B1: the “% of positive tumor cells (Average)” value was determined as 26%, the “% of positive tumor cells (Mouse 1)” value was 34% and the “% of positive tumor cells (Mouse 2)” value was 18%.
Consider B3, for which the “% of positive tumor cells (Average)” value stood at 23%, the “% of positive tumor cells (Mouse 1)” value was determined as 32% and the “% of positive tumor cells (Mouse 2)” value was 14%.
The corresponding values for B4 are 18.5%, 29% and 8%.
As for B6, the “% of positive tumor cells (Average)” value was found to be 30%, the “% of positive tumor cells (Mouse 1)” value came out at 43% and the “% of positive tumor cells (Mouse 2)” value was found to be 17%.

The next assay concerns the target T1, human CLDN18.2. The assay is described as follows: ELISA on CLDN18.2-lipoparticles, after Asn-deamidation stress test. The method, then: The stressed and non-stressed sample was stored at −80° C. Asn-deamidation and Asp-isomerization of the samples was analyzed by strong cation exchange (SCX) chromatography. Deamidation of Asn leads in a SCX chromatogram to an increase of the peak area before the main peak (bM), while Asp-isomerization leads in a SCX chromatograph to an increase of the peak area after the main peak (aM) (Du et al. 2012). SCX chromatography was performed on a MAbPac SCX-10 Column (ThermoFisher Scientific, Basel, CH), with buffer A at pH 4.0 and buffer B at pH 11.0. The flow rate was of 0.5 ml/min with a pH gradient of 30-80% buffer B. 10 μg of the sample in 20 μl of buffer A was injected into the column. Sample detection was performed by protein absorbance at 280 nm. […] NS motifs are the second most liable motifs for deamidation.
as §4
For the molecule B13, the EC50 came out at 0.0951 µg/mL and the “fold change of EC50 against non-stressed IMAB362” value amounted to 1.8 fold.

A word on the EC50: it is the concentration giving half of the maximal effect. Low readings indicate a more potent agent, high ones a less potent agent.
